According to patent US9777309B2, “High throughput assay for monitoring AMP production and aminoacyl-tRNA synthetase activity” (Board of Supervisors of Louisiana State University and …, priority 2014, dated 2017):

B1: G. stearothermophilus tyrosyl-tRNA synthetase (Geobacillus stearothermophilus) (protein)
chain: MDLLAELQWRGLVNQTTDEDGLRKLLNEERVTLYCGFDPTADSLHIGHLATILTMRRFQQAGHRPIALVGGATGLIGDPSGKKSERTLNAKETVEAWSARIKEQLGRFLDFEADGNPAKIKNNYDWIGPLDVITFLRDVGKHFSVNYMMAKESVQSRIETGISFTEFSYMMLQAYDFLRLYETEGCRLQIGGSDQWGNITAGLELIRKTKGEARAFGLTIPLVTKADGTKFGKTESGTIWLDKEKTSPYEFYQFWINTDDRDVIRYLKYFTFLSKEEIEALEQELREAPEKRAAQKTLAEEVTKLVHGEEALRQAIRISEALFSGDIANLTAAEIEQGFKDVPSFVHEGGDVPLVELLVSAGISPSKRQAREDIQNGAIYVNGERLQDVGAILTAEHRLEGRFTVIRRGKKKYYLIRYA
B2: AMP deaminase (Saccharomyces cerevisiae S288C) (protein)
chain: MDNQATQRLNDLSLEPAPSHDEQDGSGLVIDIDQRKIGDEQAGVVVDDETPPLEQQDSHESLAADSRNANFSYHENQQLLENGTKQLALDEHDSHSAILEQPSHSTNCSSSNIAAMNKGHDSADHASQNSGGKPRTLSASAQHILPETLKSFAGAPVVNKQVRTSASYKMGMLADDASQQFLDDPSSELIDLYSKVAECRNLRAKYQTISVQNDDQNPKNKPGWVVYPPPPKPSYNSDTKTVVPVTNKPDAEVFDFTKCEIPGEDPDWEFTLNDDDSYVVHRSGKTDELIAQIPTLRDYYLDLEKMISISSDGPAKSFAYRRLQYLEARWNLYYLLNEYQETSVSKRNPHRDFYNVRKVDTHVHHSACMNQKHLLRFIKHKLRHSKDEKVIFRDGKLLTLDEVFRSLHLTGYDLSIDTLDMHAHKDTFHRFDKFNLKYNPIGESRLREIFLKTNNYIKGTYLADITKQVIFDLENSKYQNCEYRISVYGRSLDEWDKLASWVIDNKVISHNVRWLVQIPRLYDIYKKTGIVQSFQDICKNLFQPLFEVTKNPQSHPKLHVFLQRVIGFDSVDDESKVDRRFHRKYPKPSLWEAPQNPPYSYYLYYLYSNVASLNQWRAKRGFNTLVLRPHCGEAGDPEHLVSAYLLAHGISHGILLRKVPFVQYLYYLDQVGIAMSPLSNNALFLTYDKNPFPRYFKRGLNVSLSTDDPLQFSYTREPLIEEYSVAAQIYKLSNVDMCELARNSVLQSGWEAQIKKHWIGKDFDKSGVEGNDVVRTNVPDIRINYRYDTLSTELELVNHFANFKRTIEEK

Experiments:
Experiment in all cases: purified protein, by the assay type
[1] = substrate: N[C@H](Cc1ccc(O)cc1)C(=O)O; conditions: other: 10 mM MgATP, saturating tRNA^Tyr, 25° C., L-Tyr with cyclodityrosine synthase, D-Tyr with D-tyrosyl-tRNA deacylase, pH 7.78
Experimental: (§1) The pH of all stock solutions was adjusted to 7.0 prior to use. All kinetic assays were performed in 96 well microtiter plates at 25° C. using either 100 or 200 μl of assay mix per well. Under these conditions, the path lengths are 0.28 and 0.56 cm, respectively. The reaction rate for formation of the L-Tyr-tRNA^TYr product was determined by monitoring the increase in absorbance at 340 nm associated with the conversion of NAD^+ to NADH using a BioTek Synergy 4 plate reader (ε340=6220 M^−1 cm^−1).
(§2) Initial rates for each substrate concentration were determined from a linear fit of the data (A340 vs. time). Km and Vmax values were determined by fitting a plot of the initial rate vs. substrate concentration to the Michaelis-Menten equation, the same equations (1) and (2) above:
(§3) [formula] where vo is the initial rate of the reaction and [S] is the substrate concentration. kcat values were calculated from the equation: Vmax=kcat[E]

[2] = substrate: N[C@@H](Cc1ccc(O)cc1)C(=O)O; conditions: other: 10 mM MgATP, saturating tRNA^Tyr, 25° C., L-Tyr with cyclodityrosine synthase, D-Tyr with D-tyrosyl-tRNA deacylase, pH 7.78
Experimental: as §1, §2, §3

[3] = substrate: Nc1ncnc2c1ncn2[C@@H]1O[C@H](COP(=O)(O)O)[C@@H](O)[C@H]1O; format: biochemical, Saccharomyces cerevisiae; conditions: other: pH 7.2, 2 mM ATP, 3 μM IMP dehydrogenase, 25° C., standard error in parenthesis
Experimental: All kinetic assays were performed in 96 well microtiter plates at 25° C. using 200 μl of assay mix per well. Under these conditions, the path length is 0.56 cm. All assays were monitored by following the change in absorbance at 340 nm over 10 minutes using a Synergy 4 Hybrid Microplate Reader (BioTek, Winooski, Vt.).
Initial rates for each substrate concentration were determined from a linear fit of the data (A340 vs. time). Km and Vmax values were determined by fitting a plot of initial rate vs. substrate concentration to the Michaelis-Menten equation:
[formula] where vo is the initial rate of the reaction, [E] is the total enzyme concentration, and [S] is the substrate concentration. kcat values were calculated from the equation: Vmax=kcat[E] (2) where [E] is the molar concentration of the enzyme in the assay.

| Protein | Km [1] | Km [2] | Km [3] | kcat [3] |
| --- | --- | --- | --- | --- |
| B1 | 23 (±6) μM | 24 (±3) μM | – | – |
| B2 | – | – | 0.4 (±0.1) mM | 21 (±4) s^−1 |
